# Data published in US20220193195A1, “LYMPHOTOXIN ALPHA FOR USE IN THERAPY OF MYELOID LEUKEMIA” (Klinikum Rechts der Isar der Technischen Universität München, priority 2019, published 2022).
# “Also recorded” adds a separate entry of the source.
# B1: LT-α: Lymphotoxin alpha polypeptide (SEQ ID No. 1/2); recombinant mouse LT-α used in mouse tests, recombinant human LT-α in human cell tests (protein, UniProt P01374 35-205, looked up)
# Lymphotoxin-alpha: LPGVGLTPSAAQTARQHPKMHLAHSTLKPAAHLIGDPSKQNSLLWRANTDRAFLQDGFSLSNNSLLVPTSGIYFVYSQVVFSGKAYSPKATSSPLYLAHEVQLFSSQYPFHVPLLSSQKMVYPGLQEPWLHSMYHGAAFQLTQGDQLSTHTDGIPHLVLSPSTVFFGAFAL
# modifications: mouse LT-α also used
# How the values were obtained:
# [1] = tested on: AML primary human samples; test: Primary AML bone marrow samples treated in vitro for 7 days (Lin- cells, LSC, CD99- HSPC); assay type: cell-based; settings: for cell death of AML cells (blasts, LSCs), comparison between treatments: 7-day treatment of AML primary human samples
# Source text: Primary and secondary AML samples were obtained from patients enrolled in the clinical trial AMLCG-2008 (http://clinicaltrial.gov identifier NCT01382147), the AML register protocol of the AML Register and Biomaterial Database of the German Leukemia Study Alliance, the AML register protocol of the German AML Cooperative Group Version 2.0 from Jan. 6, 2011, the AML register protocol of the German AML study group, or treated at the III. Medical Department at the Technical University of Munich after approval of the local ethics committee (approval no. 62/16 S from Feb. 10, 2016 to 2790/10 from Apr. 30, 2010). Informed consent was obtained from patients at study entry.
# To examine how targeting TNF/ LT-α signaling can be most effectively used to treat AML, the inventors treated AML primary human samples in vitro. LT-α and a-TNF (Adalimumab) were evaluated, alone or in combination. Moreover, LT-α was tested in combination with the standard AML chemotherapeutic Cytarabine (CYT), the clinical SMAC mimetic Birinapant, and the clinical pan-caspase inhibitor Emricasan. Drug concentrations were determined after titration in healthy bone marrow samples and AML cell lines (data not shown). After 7-day-treatment, cell viability was evaluated, using CD99 to discriminate between non-leukaemogenic HSPCs (CD99^−) and LSCs (FIG. 4c).
# AML cell lines = test: Relative number of cells in AML cell lines after treatment (flow cytometry); assay type: cell-based, human; settings: panel of nine AML cell lines; 7 days; vs untreated cells
# Method: All centrifugation steps were performed at 400×g.
# [2] = tested on: WT FLT3-ITD mice (FLT3-ITD-driven myeloproliferative disorder)
# Method: For treatment, two- and eight-weeks post transplantation animals were randomly divided into groups of eight. Mice were i.v. injected twice per week with either isotype control (5 mg/kg; RTK2071; Biolegend), Etanercept (Enbrel®, 50 ng/ml; Pfizer), rm LT-α (250 μg/kg; Cusabio), a-TNF (5 mg/kg; MP6-XT22; Biolegend), or rm LT-α plus a-TNF.
# Mice with disease were sacrificed. Peripheral blood white blood cell counts (WBC) were measured by scil Vet abc (scil animal care company). Single-cell suspensions of indicated tissue samples were prepared and red blood cells of peripheral blood were lysed before analysis. Cells were pre-incubated with Fc-block and subsequently stained with fluorescently labeled antibodies. Dead cells were excluded by PI (Sigma) or Zombie Aqua™ Fixable Viability Kit (Biolegend) staining according to the manufacturer's instructions.
# FLT3-ITD-transduced BM = test: Colony forming cell assay (CFU-GEMM) of FLT3-ITD-transduced bone marrow; assay type: cell-based, mouse; settings: WT FLT3-ITD transduced cultures; rm LT-α 100 ng/ml, rm TNF 100 ng/ml, Etanercept 50 ng/ml; counted after 10 days; vs control
# Method: For colony forming cell assays, all duplicate cultures were performed in 35 mm petri dishes in murine methylcellulose medium (Methocult, Stem Cell Technologies). BM cells of unchallenged or 5-FUchallenged mice were plated in M3434. […] For analysis of colony forming units (CFU) cell viability, colonies were grown for 10 days in the presence of propidium iodide (PI) (0.8 μg/ml; Sigma) and representative CFU-GEMM were imaged using a Keyence BZ-9000 (Biorevo) fluorescence microscope.
# K562 = test: Relative number of K562 CML cells after treatment; settings: alone or with imatinib 1 or 10 μM; vs untreated cells
# Method: As a model for CML, LT-α was tested for potential effects on the cell line K562, either separately against the standard therapy imatinib (in concentrations of 1 or 10 μM) alone, or in combination (FIG. 5).
# healthy BM [3] = test: Hematopoietic cell subsets in healthy bone marrow treated with LT-α; settings: 100 ng/ml LT-α
# Method: (§1) Human primary samples: Bone marrow mononuclear cells (BMMC) were isolated from heparinized bone marrow samples or bone chips by centrifugation over a Ficoll-Hypaque layer (Biochrom) of 1.077 g/ml density. Cells were harvested and used directly for immunephenotyping or cultured in IMDM (Gibco) supplemented with 20% fetal calf serum (FCS; PAN-Biotech), penicillin/streptomycin 0.05 mM, L-glutamine 2 mM, and 2-mercaptoethanol 0.05 mM (Gibco) on EL08-1D2 stromal cells.
# (§2) For flow cytometry analysis after treatment, BM cells or AML cell lines were cultured as described above for 7 days in the presence of the following cytokines and inhibitors if indicated and not stated otherwise: Etanercept (Enbrel®; 50 ng/ml; Pfizer), recombinant human (rh) LT-α (100 ng/ml; R&D), rh TNF (100 ng/ml; R&D), Emricasan (2.5 nM; SelleckChem), Birinapant (10 nM; SelleckChem), Cytarabine (100 nM), a-LTα-Ig (10 μg/ml; 359-238-8; Biolegend), Adalimumab (Humira®; 500 ng/ml; Abbvie), and respective isotype controls Mouse IgG1, κ (MOPC-21; Biolegend), and Ultra-LEAF™ purified Human IgG1 (QA16A12; Biolegend).
# (§3) Non-leukemia control samples were collected from individuals who underwent bone marrow aspiration for diagnostic purposes and in whom subsequently a hematological disease was ruled out. Healthy controls were isolated from the femoral heads of patients who underwent surgical hip replacement.
# (§4) Antibodies used to separate human hematopoietic cell subsets, for immunephenotyping and intracellular protein expression analysis: Fluorescently labelled antibodies against Lineage Cocktail (Cat #348801; 348703), CD45RA (HI100), CD34 (581), CD38 (HB-7), CD99 (3B2/TA8), CD123 (5B11) were obtained from Biolegend. Flow analysis was performed on a BD FACS Canto II (BD Biosciences) and data were analyzed using FlowJo software (Tree Star).
# healthy BM [4] = tested on: healthy BM
# Method: as §1, §2, §3, §4
# [5] = WT FLT3-ITD mice, treated twice per week
# [6] = compared to controls, data not shown
molecule,measurement,setting,value
"CC[C@H](NC(=O)[C@H](C)NC)C(=O)N1C[C@@H](O)C[C@H]1Cc1c(-c2[nH]c3cc(F)ccc3c2C[C@@H]2C[C@H](O)CN2C(=O)[C@H](CC)NC(=O)[C@H](C)NC)[nH]c2cc(F)ccc12 [Birinapant, reference compound]","cell death of AML cells (blasts, LSCs), comparison between treatments",[1],"better at promoting cell death, both of blasts and LSCs, than Cytarabine"
"C[C@H](NC(=O)C(=O)Nc1ccccc1C(C)(C)C)C(=O)N[C@@H](CC(=O)O)C(=O)COc1c(F)c(F)cc(F)c1F [Emricasan, reference compound]","cell death of AML cells (blasts, LSCs), comparison between treatments",[1],resistant to LT-α- and Birinapant-induced cell death
Etanercept,number of AML cells,AML cell lines,not observed
same,remission / disease outcome,[2]; [5],rapidly succumbed to disease
same,Median survival,"[2]; WT mice transplanted with FLT3-ITD-transduced WT BM, treated i.v. twice per week",65 days
same,WBC counts,[2]; [6],considerably elevated
same,hepato-splenomegaly,[2]; [6],increased
same,latency,[2]; [6],reduced
same,leukemic burden,[2]; [6],elevated
same,number of primitive leukemic cells,[2]; [6],drastically increased
same,number of GEMM colonies,FLT3-ITD-transduced BM,increase
adalimumab,number of AML cells,AML cell lines,drastic reduction
B1,number of AML cells,AML cell lines,significantly decreased
same,tolerability in vivo,"[2]; WT FLT3-ITD mice, i.v. twice per week",well tolerated
same,remission / disease outcome,[2]; [5],induced durable remissions
same,LSCs in FLT3-ITD-transplanted mice,[2]; treated twice per week,eradicates LSCs
same,effect on K562 cells (relative number of cells),K562,significant effects; also recorded: kills blast cells
same,toxic effect on healthy bone marrow,healthy BM [3]; bone marrow samples from healthy control patients,not elicit any detectable toxic effect
same,healthy haematopoiesis (HSCs and myeloid progenitor subsets),healthy BM [3]; healthy BM,sustained
same,toxicity to healthy controls / healthy cells,healthy BM [4],lacks any pronounced cytotoxicity
same,"cell death of AML cells (blasts, LSCs), comparison between treatments",[1],more effectively than the standard AML chemotherapeutic Cytarabine; also recorded: more efficient manner than a-TNF
same,non-leukaemogenic HSPCs (CD99-),"[1]; 7-day treatment, a-TNF = Adalimumab",promoted expansion
same,Lin- cells (bulk of AML blasts and healthy HSPCs),"[1]; 7-day treatment, rh LT-α 100 ng/ml",killed
same,LSCs in AML BM samples,"[1]; 7-day treatment, rh LT-α 100 ng/ml, a-TNF = Adalimumab 500 ng/ml",killed
same,number of GEMM colonies,FLT3-ITD-transduced BM,significantly reduced
